Measured values: doi:10.1101/773283 (bioRxiv, 2020)
Where “and” joins values, the source holds several entries; their conditions need not be identical. Identical values can stand only once.

Assays:
[1] = molecular target: human vinculin D1 and D2 domains (D1D2) (human) (UniProt P18206); experiment: SEC-MALS
[2] = molecular target: cysteine-clamped vinculin D1D2 Q68C A396C (human) (UniProt P18206); experiment: native gel or EMSA
[3] = molecular target: human vinculin D1 subdomain (HV 1-258) (human) (UniProt P18206); experiment: native gel or EMSA
[4] = molecular target: human vinculin D1 and D2 domains (D1D2) (human) (UniProt P18206); experiment: native gel or EMSA
[5] = molecular target: human vinculin HV 1-834 containing the D1-D4 domains (human) (UniProt P18206); experiment: SEC-MALS
[6] = molecular target: human vinculin D1 subdomain (HV 1-258) (human) (UniProt P18206); experiment: SEC-MALS
[7] = molecular target: full-length human vinculin (HV) (human) (UniProt P18206); experiment: ELISA
SEC-MALS = molecular target: the molecule itself; experiment: SEC-MALS

human vinculin D1 and D2 domains (D1D2) (from UniProt P18206-2 1-492) (domain or fragment)
stoichiometry N [1]: 3

IpaA derivative containing VBS1-3 (A483) (from UniProt P18010 483-633) (domain or fragment)
stoichiometry N [2]: 1 | stoichiometry N [3]: 1 | stoichiometry N [4]: 1 | stoichiometry N (A483 per D1D2) [4]: 1 and 2 | stoichiometry N (D1D4 per A483) [5]: 1 and 2 | stoichiometry N [6]: 3 D1 per A483 | stoichiometry N (D1D2 per A483) [1]: 2 | EC50 [7]: 6.1 nM

IpaA derivative containing VBS1-2 (A524) (from UniProt P18010 524-633) (domain or fragment)
stoichiometry N [2]: 1 | stoichiometry N [3]: 1 | stoichiometry N [4]: 1 | stoichiometry N (D1D2 per A524) [1]: 1 and 2 | EC50 [7]: 3.7 nM

B1: human vinculin HV 1-834 containing the D1-D4 domains (domain or fragment, UniProt P18206-2 1-834, looked up)
chain: MPVFHTRTIESILEPVAQQISHLVIMHEEGEVDGKAIPDLTAPVAAVQAAVSNLVRVGKETVQTTEDQILKRDMPPAFIKVENACTKLVQAAQMLQSDPYSVPARDYLIDGSRGILSGTSDLLLTFDEAEVRKIIRVCKGILEYLTVAEVVETMEDLVTYTKNLGPGMTKMAKMIDERQQELTHQEHRVMLVNSMNTVKELLPVLISAMKIFVTTKNSKNQGIEEALKNRNFTVEKMSAEINEIIRVLQLTSWDEDAWASKDTEAMKRALASIDSKLNQAKGWLRDPSASPGDAGEQAIRQILDEAGKVGELCAGKERREILGTCKMLGQMTDQVADLRARGQGSSPVAMQKAQQVSQGLDVLTAKVENAARKLEAMTNSKQSIAKKIDAAQNWLADPNGGPEGEEQIRGALAEARKIAELCDDPKERDDILRSLGEISALTSKLADLRRQGKGDSPEARALAKQVATALQNLQTKTNRAVANSRPAKAAVHLEGKIEQAQRWIDNPTVDDRGVGQAAIRGLVAEGHRLANVMMGPYRQDLLAKCDRVDQLTAQLADLAARGEGESPQARALASQLQDSLKDLKARMQEAMTQEVSDVFSDTTTPIKLLAVAATAPPDAPNREEVFDERAANFENHSGKLGATAEKAAAVGTANKSTVEGIQASVKTARELTPQVVSAARILLRNPGNQAAYEHFETMKNQWIDNVEKMTGLVDEAIDTKSLLDASEEAIKKDLDKCKVAMANIQPQMLVAGATSIARRANRILLVAKREVENSEDPKFREAVKAASDELSKTISPMVMDAKAVAGNISDPGLQKSFLDSGYRILGAVAKVREA
stoichiometry N (SEC-MALS): 3
